# From PMC11772155, “Solid-Phase-Supported Chemoenzymatic Synthesis and Analysis of Chondroitin Sulfate Proteoglycan Glycopeptides” (Angewandte Chemie (International ed. in English), 2024)
# Numbered stars: 1 amine (or outer) side, 2 acyl side, 3 side chain; on linkers, the order of the positions; unused ones are H or OH. Square brackets hold non-standard residues; d marks the D form. Ends that are not written are not given here. Peptide text beside a SMILES is read from it. X1 = CC(=O)N[C@H]1[C@H](O[C@H]2[C@H](O)[C@@H](O)[C@H](O[C@H]3[C@@H](O)[C@@H](CO)O[C@@H](O[C@H]4[C@@H](O)[C@@H](CO)O[C@@H](O[C@@H]5CO[C@@H](OC[C@H](N[*:1])C(=O)[*:2])[C@H](O)[C@H]5O)[C@@H]4O)[C@@H]3O)O[C@@H]2C(=O)O)O[C@H](CO)[C@H](OS(=O)(=O)O)[C@@H]1O[C@@H]1O[C@H](C(=O)O)[C@@H](O[C@@H]2O[C@H](CO)[C@H](OS(=O)(=O)O)[C@H](O[C@@H]3O[C@H](C(=O)O)[C@@H](O[C@@H]4O[C@H](CO)[C@H](O)[C@H](O[C@@H]5O[C@H](C(=O)O)[C@@H](O)[C@H](O)[C@H]5O)[C@H]4NC(C)=O)[C@H](O)[C@H]3O)[C@H]2NC(C)=O)[C@H](O)[C@H]1O
# Assays:
# [1] = target: T1, Human Neutrophil Cathepsin G (Homo sapiens, UniProt P08311); test: BLI (biolayer interferometry) binding assay of immobilized biotinylated compounds with Cathepsin G; details: biotinylated compounds immobilized on streptavidin sensors, Cathepsin G at 2000, 1000, 500, 250 nM in PBS containing 0.005% P20, read-out: KD (nM) with Cathepsin G
# T1 construct: Human Neutrophil Cathepsin G was purchased from Athens; purchased Athens Research & Technology, Inc. (Athens, Georgia)
# T1 sequence (P08311 21-243 limits assumed): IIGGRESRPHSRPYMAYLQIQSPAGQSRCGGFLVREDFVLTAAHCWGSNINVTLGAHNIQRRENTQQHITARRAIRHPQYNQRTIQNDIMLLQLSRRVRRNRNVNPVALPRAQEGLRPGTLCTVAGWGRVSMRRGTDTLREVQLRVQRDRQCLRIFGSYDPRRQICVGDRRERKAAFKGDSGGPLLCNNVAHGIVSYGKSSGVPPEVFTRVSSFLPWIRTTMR
# Source text: With structurally defined glycopeptides in hand, we aim to better understand the structural features needed for bikunin glycopeptide binding. Cathepsin G (CatG), a neutrophil serine protease, plays a crucial role in regulating various physiological processes, including inflammation, digestion, smooth muscle contraction, and tissue remodeling.[64] While CatG has been reported to interact with CSPG, the structural requirement of CSPG binding has not been established.[25] To measure the binding affinity towards CatG, peptides 5 and glycopeptides 10, 18–21 were biotinylated and immobilized on streptavidin coated sensors for biolayer interferometry (BLI) studies. Biotinylated 50 kDa CS and CS-A were also immobilized on the sensors for comparison. […]
# General procedure of glycopeptide biotinylation
# To a solution of peptide or glycopeptide in DMSO/H 2O (1/1, 0.1 ml) was added NHS-LC-Biotin (4 equiv.) and diisoproylethylamine (pH ~ 8.5). The reaction was incubated at 37 °C for 2 h. Then the mixture was dried in vacuo and purified by HPLC.
# General procedure for BLI binding assay
# The binding assay was performed on the Octet K2 System (Pall ForteBio). The biotinylated compounds were incubated with streptavidin (SA) sensors for 2 min. The sensor was then balanced in the assay buffer (PBS containing 0.005% P20) and dipped into Cathepsin G solution in assay buffer at 2000 nM, 1000 nM, 500 nM, 250 nM concentrations.
# After 5 min of association, the sensor was brought back to the previous assay buffer for a 5 min dissociation step. At the end of the assay, the sensor was regenerated in 2 M NaCl to remove the bound protein. Each measurement was repeated 3 times on the same sensor. The control assay was performed with another sensor loaded with a 2 mM biotin solution.
# Figure S3. Binding of peptide and glycopeptides a) 5, b) 10 , c) 18 , d) 19 , e) 20 , f) 21 , g) commercially available biotinylated 50 kDa CS, and h) 50 kDa CS-A to neutrophil Cathepsin G as measured by BLI ( a-h respectively). The biotinylated compounds (50 nM) were immobilized on streptavidin coated biosensors, and human neutrophil Cathepsin G was captured on biosensors with four concentrations at 2000 nM, 1000 nM, 500 nM, 250 nM.
# Fitting curves were shown in red lines. […]
# [2] = target: biotinylated non-sulfated chondroitin dodecasaccharide glycopeptide 18 (bikunin); test: BLI; biotinylated peptide or glycopeptides immobilised on streptavidin coated sensors; cathepsin G in solution
# [3] = target: biotinylated sulfated 10-mer CS-bearing glycopeptide 20 (bikunin); test: as above
# [4] = target: biotinylated sulfated 12-mer CS-bearing glycopeptide 21 (bikunin); test: as above
# [5] = target: biotinylated sulfated 8-mer CS-bearing glycopeptide 19 (bikunin); test: as above
# [6] = target: biotinylated tetrasaccharide linkage region bearing glycopeptide 10 (bikunin); test: as above
compound,measurement,setting,value
CC(=O)N[C@H]1[C@H](O[C@H]2[C@H](O)[C@@H](O)[C@H](O[C@H]3[C@@H](O)[C@@H](CO)O[C@@H](O[C@H]4[C@@H](O)[C@@H](CO)O[C@@H](O[C@@H]5CO[C@@H](OC[C@H](NC(=O)CNC(=O)[C@H](CCC(=O)O)NC(=O)[C@H](CCC(=O)O)NC(=O)[C@H](CCC(=O)O)NC(=O)[C@H](CCC(N)=O)NC(=O)[C@@H]6CCCN6C(=O)[C@H](CC(C)C)NC(=O)[C@@H](NC(=O)[C@H](C)N)C(C)C)C(=O)NCC(=O)NCC(=O)NCC(=O)N[C@@H](CCC(N)=O)C(=O)N[C@@H](CC(C)C)C(=O)N[C@H](C(=O)N[C@H](C(=O)N[C@@H](CCC(=O)O)C(=O)N[C@H](C(=O)N[C@H](C(=O)N[C@@H](CCCCN)C(=O)N[C@@H](CCCCN)C(=O)N[C@@H](CCC(=O)O)C(=O)N[C@@H](CC(=O)O)C(=O)N[C@@H](CO)C(=O)O)[C@@H](C)O)C(C)C)[C@@H](C)O)C(C)C)[C@H](O)[C@H]5O)[C@@H]4O)[C@@H]3O)O[C@@H]2C(=O)O)O[C@H](CO)[C@H](OS(=O)(=O)O)[C@@H]1O[C@@H]1O[C@H](C(=O)O)[C@@H](O[C@@H]2O[C@H](CO)[C@H](OS(=O)(=O)O)[C@H](O[C@@H]3O[C@H](C(=O)O)[C@@H](O[C@@H]4O[C@H](CO)[C@H](O)[C@H](O[C@@H]5O[C@H](C(=O)O)[C@@H](O)[C@H](O)[C@H]5O)[C@H]4NC(C)=O)[C@H](O)[C@H]3O)[C@H]2NC(C)=O)[C@H](O)[C@H]1O [Compound 20] (H-AVLPQEEEG[X1]GGGQLVTEVTKKEDS-OH; N-terminus and C-terminus assumed),Kd,[1],74 ± 7 nM
CC(=O)N[C@H]1[C@H](O[C@H]2[C@H](O)[C@@H](O)[C@H](O[C@H]3[C@@H](O)[C@@H](CO)O[C@@H](O[C@H]4[C@@H](O)[C@@H](CO)O[C@@H](O[C@@H]5CO[C@@H](OC[C@H](NC(=O)CNC(=O)[C@H](CCC(=O)O)NC(=O)[C@H](CCC(=O)O)NC(=O)[C@H](CCC(=O)O)NC(=O)[C@H](CCC(N)=O)NC(=O)[C@@H]6CCCN6C(=O)[C@H](CC(C)C)NC(=O)[C@@H](NC(=O)[C@H](C)N)C(C)C)C(=O)NCC(=O)NCC(=O)NCC(=O)N[C@@H](CCC(N)=O)C(=O)N[C@@H](CC(C)C)C(=O)N[C@H](C(=O)N[C@H](C(=O)N[C@@H](CCC(=O)O)C(=O)N[C@H](C(=O)N[C@H](C(=O)N[C@@H](CCCCN)C(=O)N[C@@H](CCCCN)C(=O)N[C@@H](CCC(=O)O)C(=O)N[C@@H](CC(=O)O)C(=O)N[C@@H](CO)C(=O)O)[C@@H](C)O)C(C)C)[C@@H](C)O)C(C)C)[C@H](O)[C@H]5O)[C@@H]4O)[C@@H]3O)O[C@@H]2C(=O)O)O[C@H](CO)[C@H](OS(=O)(=O)O)[C@@H]1O[C@@H]1O[C@H](C(=O)O)[C@@H](O[C@@H]2O[C@H](CO)[C@H](OS(=O)(=O)O)[C@H](O[C@@H]3O[C@H](C(=O)O)[C@@H](O[C@@H]4O[C@H](CO)[C@H](OS(=O)(=O)O)[C@H](O[C@@H]5O[C@H](C(=O)O)[C@@H](O[C@@H]6O[C@H](CO)[C@H](O)[C@H](O[C@@H]7O[C@H](C(=O)O)[C@@H](O)[C@H](O)[C@H]7O)[C@H]6NC(C)=O)[C@H](O)[C@H]5O)[C@H]4NC(C)=O)[C@H](O)[C@H]3O)[C@H]2NC(C)=O)[C@H](O)[C@H]1O [Compound 21],Kd,[1],56 ± 8 nM
Cathepsin G (from UniProt P08311 21-244) (enzyme),Kd,[2],490 nM
same,Kd,[3],74 nM
same,Kd,[4],56 nM
same,Kd,[5],49 nM
same,Kd,[6],650 nM
H-AVLPQEEEGSGGGQLVTEVTKKEDS [Compound 5],Kd,[1],400 ± 40 nM
